Biological target: HA-STIM1-L258C (UniProt Q13586)
Assay: disulfide crosslinking, Western blot
Conditions: diamide-treated STIM1/2 DKO HEK293 cells coexpressing HA-STIM1-L258C and a single mCh-STIM1 mutant; read off a plot

other: Crosslinking (%) | Substance
2.9% | mCh-STIM1 417C
3.8% | mCh-STIM1 418C

The remaining lines, values behind:

Substance | other: Crosslinking (%)
mCh-STIM1 421C | 1.8%
mCh-STIM1 424C | 7%
mCh-STIM1 422C | 1.2%

Source: article PMC12718381
